Reference: patent publication US20240327505A1

Key:
[1] = target: SARS-CoV-1 spike protein on pseudovirus (SARS-CoV-1) (UniProt P59594); experiment: cell-based or functional assay
[2] = target: SARS-CoV-2 Wuhan-1 full-length Spike protein on pseudovirus (SARS-CoV-2) (UniProt P0DTC2); experiment: cell-based or functional assay
[3] = target: SARS-CoV-2 spike protein on fully infectious (replication-competent) SARS-CoV-2 virus (SARS-CoV-2) (UniProt P0DTC2); experiment: cell-based or functional assay
[4] = target: SARS-CoV-2 spike receptor-binding domain (RBD) (SARS-CoV-2) (UniProt P0DTC2)
[5] = target: SARS-CoV-2 spike S1 protein (SARS-CoV-2) (UniProt P0DTC2)
[6] = target: SARS-CoV-2 Spike (S) trimer (SARS-CoV-2) (UniProt P0DTC2); experiment: ELISA on coated S trimer, 1:50
[7] = target: SARS-CoV-2 Spike (S) trimer (SARS-CoV-2) (UniProt P0DTC2); experiment: SPR binning (Carterra LSA), antibody amine-coupled to the chip as ligand

For “Anti-Nucleocapsid (Neg Control) (antibody)”, the Pseudovirus Neturalization [1] was over 50 µg/mL and the Pseudovirus Neturalization [2] was over 50 µg/mL.
CA-1 (AB-009265) (antibody) was tested, and the Neutralization (Infectious virus; (µg/mL)) [3] was 2.46 µg/mL, the Pseudovirus Neturalization [1] was over 50 µg/mL and the Pseudovirus Neturalization [2] was 0.266 µg/mL. For the same substance, the Kd [4] was 5.72 nM, the Response [4] was 0.53 nm and the koff [4] was 0.000681 s⁻¹. It also gave a kon [4] of 119000 M⁻¹ s⁻¹, a Kd [5] of 43.6 nM and a Response [5] of 0.27 nm. The koff [5] was 0.0127 s⁻¹, the kon [5] was 291000 M⁻¹ s⁻¹ and the OD 450 nm [6] was 2.74 OD.
CB-6 (AB-009264) (antibody) was tested, and the Neutralization (Infectious virus; (µg/mL)) [3] was 0.13 µg/mL, the Pseudovirus Neturalization [1] was over 50 µg/mL and the Pseudovirus Neturalization [2] was 0.012 µg/mL. For the same substance, the Kd [4] was 4.77 nM, the Response [4] was 0.58 nm and the koff [4] was 0.000844 s⁻¹. For the same substance, the kon [4] was 177000 M⁻¹ s⁻¹, the Kd [5] was 27.7 nM and the Response [5] was 0.361 nm. The koff [5] was 0.0107 s⁻¹, the kon [5] was 386000 M⁻¹ s⁻¹ and the OD 450 nm [6] was 2.81 OD.
In the case of COVA1-21 (AB-010159) (antibody), the Pseudovirus Neturalization [1] is reported as over 50 µg/mL and the Pseudovirus Neturalization [2] is reported as 21 µg/mL.
Work on CR3022 (AB-009073) (antibody) yielded a Neutralization (Infectious virus; (µg/mL)) [3] of over 50 µg/mL, a Pseudovirus Neturalization [1] of 2.61 µg/mL and a Pseudovirus Neturalization [2] of over 50 µg/mL. For the same substance, the response as ligand (RU) [7] was under 20 RU.
“LY-CoV555 | Bamlanivimab (AB-010160) (antibody)” showed a Pseudovirus Neturalization [1] of over 50 µg/mL.
For “REGN10933 | Casirivimab (AB-010156) (antibody)”, the Pseudovirus Neturalization [1] was over 50 µg/mL.
For “REGN10987 | Imdevimab (AB-010157) (antibody)”, the Pseudovirus Neturalization [1] was over 50 µg/mL.
